Changes are numbered by the printed parent chain. In names and notes the source's numbering stands.
B1: KAZ-I90V: KAZ with single amino acid substitution I90V (protein)
chain: FTLADFVGDWQQTAGYNQDQVLEQGGLSSLFQALGVSVTPIQKVVLSGENGLKADIHVIIPYEGLSGFQMGLIEMIFKVVYPVDDHHFKVILHYGTLVIDGVTPNMIDYFGRPYPGIAVFDGKQITVTGTLWNGNKIYDERLINPDGSLLFRVTINGVTGWRLCENILA
B2: KAZ-A4E: KAZ with single amino acid substitution A4E (protein)
chain: B1 chain with A4E, V90I
B3: KAZ-N166R: KAZ with single amino acid substitution N166R (protein)
chain: B1 chain with V90I, N166R
B4: KAZ-P115E: KAZ with single amino acid substitution P115E (protein)
chain: B1 chain with V90I, P115E
B5: KAZ-Q124K: KAZ with single amino acid substitution Q124K (protein)
chain: B1 chain with V90I, Q124K

Tested on: not listed separately
Assay: Luminescence activity of KAZ mutants (pCold II, E. coli) in supernatant and precipitate of crude enzyme solution
Format: biochemical
Conditions: Table 3; pCold II, E. coli BL21; 5 μL precipitate; 0.5 μg coelenterazine; 60 seconds
Protocol: In order to express the KAZ mutants in E. coli, the recombinant plasmid prepared in EXAMPLE 3 was used. The E. coli BL21 strain (Novagen, Madison, Wis.) was used as a host cell. The BL21 strain carrying the recombinant plasmid was incubated in 5 mL of Luria-Bertani medium (hereinafter designated as LB medium) containing ampicillin (50 μg/mL) at 37° C. for 18 hours. This seed culture, 0.1 mL, was inoculated to 10 mL of LB medium and incubated for 3 hours, followed by cooling in an ice-water bath for 1 hour. IPTG was added to the culture medium at a final concentration of 1 mM, followed by incubation at 15° C. for further 20 hours. After completion of the incubation, 1 mL of the cultured medium was harvested by centrifugation at 10,000 rpm for 2 minutes. The thus collected E. coli cells were suspended in 0.5 mL of 30 mM Tris-HCl (pH 7.6)-10 mM EDTA (manufactured by Wako Pure Chemical Industries, Ltd.) (hereinafter designated as TE). The E. coli cells were disrupted by sonication for 3 seconds using a Branson Model 250 Sonifier (Danbury, Conn.) to give a crude enzyme solution. After 0.5 mL of the crude enzyme solution was further centrifuged at 10,000 rpm for 2 minutes to separate the supernatant from the precipitate, the precipitate was suspended in 0.5 mL of TE. Then 20 μL each of the supernatant and precipitate were analyzed by SDS-PAGE to confirm the presence or absence of soluble and insoluble proteins. The results are shown in FIG. 1, wherein M and 1 to 17 denote: M: molecular weight size markers; 1: KAZ; 2 KAZ-A4E; 3: KAZ-Q11R; 4: KAZ-Q18L; 5: KAZ-L27V; 6: KAZ-A33N; 7: KAZ-K43R; 8: KAZ-V44I; 9: KAZ-A54I; 10: KAZ-F68D; 11: KAZ-L72Q; 12: KAZ-M75K; 13: KAZ-I90V; 14: KAZ-P115E; 15: KAZ-Q124K; 16: KAZ-Y138I; 17: KAZ-N166R and 18: dnKAZ.
A luminescence reaction was started by the addition of 5 μL each of the supernatant and precipitate obtained in EXAMPLE 4 to 100 μL of TE containing 0.5 μg of coelenterazine (manufactured by JNC Corp.). The luminescence activity was measured for 60 seconds using a luminometer (manufactured by Atto Corp.: AB2200) and expressed in terms of relative luminescence activity (Imax).
To express the KAZ mutants with two amino acid substitutions and three amino acid substitutions in E. coli using a pCold II vector, the recombinant plasmid constructed in EXAMPLE 13 and pCold-V44I-KAZ, pCold-A54I-KAZ, pCold-Y138I-KAZ prepared in EXAMPLE 3 were used. The supernatant and precipitate of each crude enzyme solution were prepared in the same manner as EXAMPLE 4, using the E. coli BL21 starin (Novagen, Madison, Wis.) as a host cell. The supernatant and precipitate, 20 μL each, were subjected to SDS-PAGE analysis to confirm the presence or absence of soluble proteins and insoluble proteins. In FIG. 3, M and 1 to 9 are as follows. M: molecular weight markers; 1: dnKAZ; 2: KAZ; 3: KAZ-V44I-A54I; 4: KAZ-V44I-Y138I; 5: KAZ-A54I-Y138I; 6: KAZ-V44I-A54I-Y138I; 7: KAZ-V44I; 8: KAZ-A54I; and 9: KAZ-Y138I.
The luminescence activities of 5 μL each of the supernatant and precipitate obtained in EXAMPLE 14 were determined in the same manner as EXAMPLE 5. The luminescence activity was assayed with a luminometer (manufactured by Atto Inc.: AB2200) for 60 seconds, and the maximum intensity of luminescence (Imax) was shown as relative luminescence activity.

First: B1
Second: B2
The “Relative Luminescence Activity (Imax) Precipitate” value of the first is higher: 0.4 for the first, 0.2 for the second.

Compared with B3, B4 is higher in “Relative Luminescence Activity (Imax) Precipitate” value: 0.8 for the first, 1.1 for the second.

For B5, the “Relative Luminescence Activity (Imax) Precipitate” value was 0.8.

Same assay, conditions: Table 3; pCold II, E. coli BL21; 5 μL supernatant; 0.5 μg coelenterazine; 60 seconds

Compared with B1, B2 is lower in “Relative Luminescence Activity (Imax) Supernatant” value: 2.1 for the first, 1.5 for the second.

Compared with B3, B4 is higher in “Relative Luminescence Activity (Imax) Supernatant” value: 4.7 for the first, 16 for the second.

For B5, the “Relative Luminescence Activity (Imax) Supernatant” value was 7.4.

Tested on: not listed separately
Assay: Luminescence activity of ZZ-fused KAZ mutants in crude enzyme solutions
Format: biochemical
Conditions: Table 4; ZZ-fused (pCold-ZZ-P-); 1 μL crude enzyme solution, 1 mM DTT; 1 μg coelenterazine
Protocol: To express the ZZ-fused KAZ mutants in E. coli, the recombinant plasmid prepared in EXAMPLE 6 was used. Crude enzyme solutions were prepared in the same manner as EXAMPLE 4 using the E. coli BL21 strain (Novagen, Madison, Wis.) as a host cell. The resultant crude enzyme solution, 5 μL, was subjected to SDS-PAGE analysis to confirm expression of the proteins (FIG. 2). In FIG. 2, M and 1 to 18 are the same as described in FIG. 1.
DTT was added to the crude enzyme solution obtained in EXAMPLE 7 at a final concentration of 1 mM and the mixture was allowed to stand in an ice water for more than 5 hours. A luminescence reaction was started by adding 1 μL of the crude enzyme solution to 100 μL of TE containing 1 μg of coelenterazine (manufactured by JNC Corp.). The luminescence activity was determined using a luminometer (manufactured by Atto Inc.: AB2200) for 60 seconds, and the maximum intensity of luminescence (Imax) was shown as relative luminescence activity.
To express the ZZ-fused KAZ mutants in E. coli, the recombinant plasmid constructed in EXAMPLE 16 and pCold-ZZ-P-V44I-KAZ, pCold-ZZ-P-A54I-KAZ, pCold-ZZ-P-Y138I-KAZ prepared in EXAMPLE 6 were used. Crude enzyme solutions were prepared in the same manner as EXAMPLE 7, using the E. coli BL21 strain (Novagen, Madison, Wis.) as a host cell. DTT was added to the crude enzyme solutions at a final concentration of 1 mM. The mixtures were allowed to stand over 5 hours on ice, and luminescence activities were then assayed. The luminescence activities were determined by the method described in EXAMPLE 8. Also, 5 μL of the resultant crude enzyme solutions were subjected to SDS-PAGE analysis to confirm protein expression (FIG. 4). In FIG. 4, M and 1 to 9 are as follows. M: molecular weight size markers; 1: ZZ-P-KAZ; 2: ZZ-P-KAZ-V44I; 3: ZZ-P-KAZ-A54I; 4: ZZ-P-KAZ-Y138I; 5: ZZ-P-KAZ-V44I-A54I; 6: ZZ-P-KAZ-V44I-Y138I; 7: ZZ-P-KAZ-A54I-Y138I; 8: ZZ-P-KAZ-V44I-A54I-Y138I; and 9: ZZ-P-dnKAZ.

Compared with B1, B2 is lower in “Relative Luminescence Activity (Imax)” value: 1.8 for the first, 0.5 for the second.

Compared with B3, B4 is higher in “Relative Luminescence Activity (Imax)” value: 3.6 for the first, 4.5 for the second.

In the case of B5, the “Relative Luminescence Activity (Imax)” value is reported as 3.7.

Tested on: CHO-K1 cells
Assay: Luminescence activity of KAZ mutants expressed in animal culture cells with signal peptide of Gaussia luciferase for secretion
Format: cell-based, Chinese hamster
Conditions: Table 5; pcDNA3-GLsp- vectors; CHO-K1, 48 hours; 5 μL cell extracts; 0.5 μg coelenterazine
Protocol: Chinese hamster ovary cell line CHO-K1 was cultured in Ham's F-12 medium (manufactured by Wako Pure Chemical Industries, Ltd.) supplemented with 10% (v/v) fetal bovine serum (manufactured by Biowest Inc.). The CHO-K1 cells were plated in a 6-well plate in 1×10^5 cells/well/2 mL medium (n=2) and cultured in an incubator at 37° C. in 5% (v/v) CO2. After 24 hours, the purified recombinant plasmid was transfected to CHO-K1 cells using a FuGene HD transfection kit (manufactured by Promega Corp.), which was provided for subsequent experiment. Specifically, 1 μg of the recombinant plasmid pGL4.13 [Luc2/sv40], 0.1 μg of the internal standard vector and 3 μL of FuGene HD were added to 100 μL of the medium, which was allowed to stand at room temperature for 15 minutes. Subsequently, 100 μL of the DNA-FuGene complex was added to the cells in the 6 wells. After incubation for 48 hours, the culture medium was collected. On the other hand, the KAZ mutants expressed in the cells were washed 3 times with 3 mL of 1×PBS, then suspended in 1 mL of 1×PBS and disrupted on ice by ultrasonication, which was used as enzyme solutions of the cell-extracts of KAZ mutants.
A luminescence reaction was started by adding 5 μL of the culture media and cell extracts obtained in EXAMPLE 10 to 100 μL of 30 mM Tris-HCl (pH 7.6)-10 mM EDTA (manufactured by Wako Pure Chemical Industries, Ltd.) containing 0.5 μg of coelenterazine (manufactured by INC Corp.). The luminescence activity was determined using a luminometer (manufactured by Atto Inc.: AB2200) for 60 seconds, and the maximum intensity of luminescence (Imax) was defined as a percentage.
Culture media of the KAZ mutants with two amino acid substitutions and KAZ mutants with three amino acid substitutions and the enzyme solutions of the cell-extracts of KAZ mutants were prepared in the same manner as EXAMPLE 10.
In the resultant enzyme solutions and the enzyme solutions of the cell-extracts of KAZ mutants, luminescence activities were determined in the same manner as EXAMPLE 11.

First: B1
Second: B2
The “Relative Luminescence Activity (Imax) (%) Cell Extracts” value of the first is higher: 0.3% for the first, 0.1% for the second.

Going from B3 to B4, the “Relative Luminescence Activity (Imax) (%) Cell Extracts” value rises from 0.2% to 0.3%.

With B5 the “Relative Luminescence Activity (Imax) (%) Cell Extracts” value was 0.3%.

Same assay, conditions: Table 5; pcDNA3-GLsp- vectors; CHO-K1, 48 hours; 5 μL culture medium; 0.5 μg coelenterazine

With B1 the “Relative Luminescence Activity (Imax) (%) Culture Medium” value was “less than 0.01%”.
In the case of B2, the “Relative Luminescence Activity (Imax) (%) Culture Medium” value is reported as “less than 0.01%”.
With B3 the “Relative Luminescence Activity (Imax) (%) Culture Medium” value was “less than 0.01%”.
In the case of B4, the “Relative Luminescence Activity (Imax) (%) Culture Medium” value is reported as “less than 0.01%”.
In the case of B5, the “Relative Luminescence Activity (Imax) (%) Culture Medium” value is reported as “less than 0.01%”.
